Biological target: T1, γ subunit of Sulfolobus solfataricus aIF2 (Ss-aIF2γ), native version (S. solfataricus, UniProt Q980A5 2-415)
T1 sequence: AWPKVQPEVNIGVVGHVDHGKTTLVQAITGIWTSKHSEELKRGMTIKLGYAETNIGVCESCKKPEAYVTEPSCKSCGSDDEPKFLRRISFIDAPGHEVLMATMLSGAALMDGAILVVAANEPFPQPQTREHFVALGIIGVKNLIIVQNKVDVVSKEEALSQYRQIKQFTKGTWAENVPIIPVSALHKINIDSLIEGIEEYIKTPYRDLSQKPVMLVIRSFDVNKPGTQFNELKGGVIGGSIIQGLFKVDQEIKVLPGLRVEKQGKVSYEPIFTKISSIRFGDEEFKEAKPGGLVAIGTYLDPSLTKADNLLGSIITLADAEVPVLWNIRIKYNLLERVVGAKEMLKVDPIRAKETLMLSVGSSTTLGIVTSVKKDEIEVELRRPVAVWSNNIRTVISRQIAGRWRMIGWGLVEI
Experiment: SEC

B1: yeast eIF2αΔC274, His-tag removed (SAXS sample) (domain or fragment)
chain: MSTSHCRFYENKYPEIDDIVMVNVQQIAEMGAYVKLLEYDNIEGMILLSELSRRRIRSIQKLIRVGKNDVAVVLRVDKEKGYIDLSKRRVSSEDIIKCEEKYQKSKTVHSILRYCAEKFQIPLEELYKTIAWPLSRKFGHAYEAFKLSIIDETVWEGIEPPSKDVLDELKNYISKRLTPQAVKIRADVEVSCFSYEGIDAIKDALKSAEDMSTEQMQVKVKLVAAPLYVLTTQALDKQKGIEQLESAIEKITEVITKYGGVCNITMPPKAVTAT
binding result: binds

B2: yeast αD3ΔC274, His-tag removed (SAXS sample) (domain or fragment)
chain: TPQAVKIRADVEVSCFSYEGIDAIKDALKSAEDMSTEQMQVKVKLVAAPLYVLTTQALDKQKGIEQLESAIEKITEVITKYGGVCNITMPPKAVTAT
binding result: binds

Reference: PMC3553985 (Nucleic Acids Research, 2012)
